2 substances from doi:10.1101/2025.06.13.659557 can be followed below.

Like-named read-outs stand apart in the source and are kept apart here.

One experiment addresses mCherry-RalB (UniProt P11234). The experiment is described as follows: co-IP.
The target in experiment [1] is GFP-RalA (UniProt P11233). The experiment is described as follows: pull-down.
The target in experiment [2] is GFP-RalB (UniProt P11234). The experiment is described as follows: pull-down.
For experiment [3], the target named is GFP-RalA (UniProt P11233). The experiment is described as follows: pull-down. The source holds these as a separate data set.
For experiment [4], the target named is GFP-RalB (UniProt P11234). The experiment is described as follows: pull-down. The source holds these as a separate data set.
The target of experiment [5] is angiomotin (GFP-fused bait) (UniProt Q4VCS5). The experiment is described as follows: pull-down.
UniProt Q4VCS5, sequence (Q4VCS5 whole entry, the tested form may be a part): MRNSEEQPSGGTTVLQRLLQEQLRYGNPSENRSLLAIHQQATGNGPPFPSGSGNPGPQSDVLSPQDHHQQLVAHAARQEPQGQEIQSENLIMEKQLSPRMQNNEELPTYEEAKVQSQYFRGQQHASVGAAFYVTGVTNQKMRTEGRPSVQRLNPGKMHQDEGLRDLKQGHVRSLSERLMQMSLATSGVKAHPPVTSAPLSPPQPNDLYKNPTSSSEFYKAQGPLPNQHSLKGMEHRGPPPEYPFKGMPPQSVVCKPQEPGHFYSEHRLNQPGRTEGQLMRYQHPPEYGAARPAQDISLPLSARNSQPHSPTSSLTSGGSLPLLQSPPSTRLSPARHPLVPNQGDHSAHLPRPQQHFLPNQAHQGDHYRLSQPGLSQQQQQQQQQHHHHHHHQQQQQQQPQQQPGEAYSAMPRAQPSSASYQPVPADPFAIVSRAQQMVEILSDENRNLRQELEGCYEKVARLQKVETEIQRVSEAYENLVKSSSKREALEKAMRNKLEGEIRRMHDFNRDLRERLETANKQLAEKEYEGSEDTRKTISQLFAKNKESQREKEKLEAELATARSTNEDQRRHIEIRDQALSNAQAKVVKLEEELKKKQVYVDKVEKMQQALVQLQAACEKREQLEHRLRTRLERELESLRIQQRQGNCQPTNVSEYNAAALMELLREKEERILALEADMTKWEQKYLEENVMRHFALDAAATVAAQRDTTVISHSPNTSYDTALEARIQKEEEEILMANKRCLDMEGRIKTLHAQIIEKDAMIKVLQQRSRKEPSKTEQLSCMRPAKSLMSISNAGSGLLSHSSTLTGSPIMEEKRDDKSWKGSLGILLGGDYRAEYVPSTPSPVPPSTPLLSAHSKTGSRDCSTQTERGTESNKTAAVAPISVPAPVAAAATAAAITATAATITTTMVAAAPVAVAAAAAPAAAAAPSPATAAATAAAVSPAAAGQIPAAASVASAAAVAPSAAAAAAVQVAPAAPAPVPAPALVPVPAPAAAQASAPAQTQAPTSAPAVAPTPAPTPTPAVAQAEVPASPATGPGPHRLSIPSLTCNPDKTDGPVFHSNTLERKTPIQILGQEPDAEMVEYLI

UniProt P11233, sequence (P11233 whole entry): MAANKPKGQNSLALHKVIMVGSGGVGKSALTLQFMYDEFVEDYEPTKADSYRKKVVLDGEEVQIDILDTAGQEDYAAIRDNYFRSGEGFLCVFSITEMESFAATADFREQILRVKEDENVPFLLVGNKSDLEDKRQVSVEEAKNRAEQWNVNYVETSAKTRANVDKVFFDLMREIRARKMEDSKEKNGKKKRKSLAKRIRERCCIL

Take “Merlin-GFP (wild type) (from UniProt P35240 1-595) (natural protein)”: in the experiment with mCherry-RalB, the percent reduction of RalB binding to Exo84 stood at 50% and the percent reduction of RalB binding to Sec5 was 50%.
On to “Merlin-NanoLuc (from UniProt P35240 1-595) (natural protein)”, for which the fold binding over the GFP control was more than 50 fold with GFP-RalA [1]; more than 50 fold with GFP-RalB [2]; 7 fold with GFP-RalA [3]; 7 fold with GFP-RalB [4]; more than 65 fold in experiment [5].
